How the values were obtained:
Srs2ΔC (Srs2 1-898) [1] = molecular target: T1, Srs2ΔC (Srs2 1-898) (Saccharomyces cerevisiae? (budding …, UniProt P12954 1-898)); test: competition; FITC-3' overhang competitor releasing 50% of Cy5-ssDNA (N1) from 150 nM Srs2ΔC; 30 mM Tris pH 7.5, 1 mM DTT, 0.1 mg/ml BSA, 100 mM KCl, 3 nM DNA, 30 °C 10 min; 7% native PAGE in 0.5x TBE; conditions: protein: recombinant; tags: His9 (pull-down section says His6); label: fluorescein (FITC), end label
Srs2ΔC (Srs2 1-898) [2] = molecular target: T1, Srs2ΔC (Srs2 1-898); test: competition; FITC-ssDNA competitor against Cy5-ssDNA with 150 nM Srs2ΔC; value derived from text: 3 times higher than the 5 nM of 3' overhang; 30 mM Tris pH 7.5, 1 mM DTT, 0.1 mg/ml BSA, 100 mM KCl, 3 nM DNA, 30 °C 10 min; 7% native PAGE in 0.5x TBE; conditions: protein: recombinant; tags: His9 (pull-down section says His6); label: fluorescein or Cy5, end label; single strand
Srs2ΔC (Srs2 1-898) [3] = molecular target: T1, Srs2ΔC (Srs2 1-898); test: EMSA; much higher affinity than other substrates; 3 nM DNA; 30 mM Tris pH 7.5, 1 mM DTT, 0.1 mg/ml BSA, 100 mM KCl, 3 nM DNA, 30 °C 10 min; 7% native PAGE in 0.5x TBE; conditions: protein: recombinant, tags: His9 (pull-down section says His6), label: fluorescent dye (fluorescein or Cy5), end label

T1 sequence (P12954 1-898, stated change not applied): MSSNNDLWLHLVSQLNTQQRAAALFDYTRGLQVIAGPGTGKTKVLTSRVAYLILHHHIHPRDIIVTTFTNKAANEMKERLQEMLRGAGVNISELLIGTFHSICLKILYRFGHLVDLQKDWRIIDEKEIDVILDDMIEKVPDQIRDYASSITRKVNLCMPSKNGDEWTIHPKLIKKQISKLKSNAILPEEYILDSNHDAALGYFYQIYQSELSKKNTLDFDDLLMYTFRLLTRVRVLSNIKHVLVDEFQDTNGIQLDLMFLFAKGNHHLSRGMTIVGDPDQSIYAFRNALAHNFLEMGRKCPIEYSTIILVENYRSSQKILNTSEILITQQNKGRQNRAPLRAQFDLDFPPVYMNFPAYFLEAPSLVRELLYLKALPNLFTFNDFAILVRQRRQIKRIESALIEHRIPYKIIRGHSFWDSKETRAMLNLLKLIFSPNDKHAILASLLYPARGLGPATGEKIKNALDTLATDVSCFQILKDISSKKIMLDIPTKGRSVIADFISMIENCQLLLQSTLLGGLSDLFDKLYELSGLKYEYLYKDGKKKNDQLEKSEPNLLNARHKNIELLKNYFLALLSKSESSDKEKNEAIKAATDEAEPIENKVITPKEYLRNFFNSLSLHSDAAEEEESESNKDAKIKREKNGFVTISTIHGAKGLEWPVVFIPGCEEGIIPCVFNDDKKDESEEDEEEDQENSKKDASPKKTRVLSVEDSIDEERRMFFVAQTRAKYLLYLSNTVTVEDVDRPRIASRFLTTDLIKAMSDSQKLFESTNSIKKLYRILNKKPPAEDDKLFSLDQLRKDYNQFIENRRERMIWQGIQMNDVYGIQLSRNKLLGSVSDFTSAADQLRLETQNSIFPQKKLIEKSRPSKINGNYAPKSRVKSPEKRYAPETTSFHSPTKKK

B1: 3' overhang (mixed)
DNA 1: AGCTACCATGCCTGCACGAATTAAGCAATTCGTAATCATGGTCATAGCT
DNA 2: AATTCGTGCAGGCATGGTAGCT
B1 was tested, and the IC50 (Srs2ΔC (Srs2 1-898) [1]) was ~5 nM.

With AGCTACCATGCCTGCACGAATTAAGCAATTCGTAATCATGGTCATAGCT (ssDNA) [ssDNA] the IC50 (Srs2ΔC (Srs2 1-898) [2]) was ~15 nM.

B2: 5' overhang (mixed)
DNA 1: AGCTACCATGCCTGCACGAATTAAGCAATTCGTAATCATGGTCATAGCT
DNA 2: AGCTATGACCATGATTACGAATTGCTT
B2: binds (Srs2ΔC (Srs2 1-898) [3]).

B3: 5' flap (fork with leading strand) (structured_DNA)
DNA 1: AGCTACCATGCCTGCACGAATTAAGCAATTCGTAATCATGGTCATAGCT
DNA 2: AGCTATGACCATGATTACGAATTGCTT
DNA 3: GATGTCAAGCAGTCCTAAGGAATTCGTGCAGGCATGGTAGCT
B3: binds (Srs2ΔC (Srs2 1-898) [3]; 5' flap).

— article PMC3484393, “Unwinding of synthetic replication and recombination substrates by Srs2”
